Experimental data: article PMC5461540, “MOB1 Mediated Phospho-recognition in the Core Mammalian Hippo Pathway * ^([image sbox.jpg])” (Molecular & Cellular Proteomics : MCP, 2017)
Each block holds one binder with its values, some of them ahead of it. Where no end group is shown, it is not given here.

Target: T1, MOB1A wild-type (human, UniProt Q9H8S9-1 2-216)
T1 construct: also called MOB1A WT; full-length nonphosphorylated human MOB1A; source: E. coli BL21 (DE3) CodonPlus RIL, purified (glutathione-Sepharose, TEV cleavage, subtractive IMAC, SEC); not shown: His6, N-terminal, cleaved; GST, N-terminal, cleaved
T1 sequence (looked up): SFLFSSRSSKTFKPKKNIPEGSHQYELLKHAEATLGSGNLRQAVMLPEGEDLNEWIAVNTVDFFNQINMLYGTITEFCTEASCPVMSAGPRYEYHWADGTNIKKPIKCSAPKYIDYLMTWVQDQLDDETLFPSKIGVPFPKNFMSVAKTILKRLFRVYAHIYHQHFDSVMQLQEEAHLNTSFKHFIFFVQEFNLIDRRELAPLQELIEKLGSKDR
Assay: crystal structure; MOB1A mixed with MST1 phosphopeptide at 1:1.5 mole ratio; hanging drops, 0.1 M MES pH 6.0, 0.2 M LiCl, 20% PEG 6000
Settings: both partners purified

- binding result: binds
B1: MST1 pT353 phosphopeptide (15-mer, crystallization) (peptide)
peptide: VASTMTDGANTMIEH
modifications: also: phosphothreonine at 353 (place in peptide not given here)
notes: MST1 (STK4), human, 15-mer encompassing pT353; also called MST1-pT353 peptide; source: synthetic peptide, bought: Biomatik

- binding result: binds
B2: MST1 pT367 phosphopeptide (15-mer, crystallization) (peptide)
peptide: DDTLPSQLGTMVINA
modifications: also: phosphothreonine at 367 (place in peptide not given here)
notes: MST1 (STK4), human, 15-mer encompassing pT367; also called MST1-pT367 peptide; source: synthetic peptide, bought: Biomatik
